Usually Kd stands for a measure of binding affinity in units of concentration. Low values mean a tighter complex, high ones a looser complex.

Read-outs that look alike come from different tables or passages of the source. Where no end group is shown, it is not given here. Ahx = NCCCCCC(=O)O

In test [1] the target is T1, His-tagged G3BP1 NTF2 (human, UniProt Q13283 1-139). Kind of test: peptide or protein array.
The target in test [2] is T1, His-tagged G3BP1 NTF2. Kind of test: peptide or protein array. The source holds these as a separate data set.
In test [3] the target is G3BP1 NTF2 domain (residues 1-139) WT (human, UniProt Q13283 1-139). Kind of test: fluorescence polarisation. For orientation: Polarisation of emitted light reports the rotation of a fluorescent probe.
Sequence of G3BP1 NTF2 domain (residues 1-139) WT (Q13283 1-139): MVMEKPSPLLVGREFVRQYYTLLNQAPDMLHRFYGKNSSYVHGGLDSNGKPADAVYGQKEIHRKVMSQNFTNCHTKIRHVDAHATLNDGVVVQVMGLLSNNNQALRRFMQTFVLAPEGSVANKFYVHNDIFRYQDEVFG
The target in the next test is G3BP1 NTF2 (1-139) S38G (human, UniProt Q13283 1-139, S38G). Kind of test: fluorescence polarisation.
Sequence of G3BP1 NTF2 (1-139) S38G (Q13283 1-139 S38G): as the sequence (Q13283 1-139) above, with S38G counted along it
Another test has as its target G3BP1 NTF2 (1-139) S38T (human, UniProt Q13283 1-139, S38T). Kind of test: fluorescence polarisation.
The target in the next test is G3BP1 NTF2 (1-139) F15W (human, UniProt Q13283 1-139, F15W). Kind of test: fluorescence polarisation.
Sequence of G3BP1 NTF2 (1-139) F15W (Q13283 1-139 F15W): as the sequence (Q13283 1-139) above, with F15W counted along it
In test [4] the target is G3BP1 NTF2 (1-139) F15/33W (human, UniProt Q13283 1-139, F15W | F33W). Kind of test: fluorescence polarisation.
Sequence of G3BP1 NTF2 (1-139) F15/33W (Q13283 1-139 F15W/F33W): as the sequence (Q13283 1-139) above, with F15W, F33W counted along it
The target of test [5] is G3BP1 NTF2 (1-139) F33/124W (human, UniProt Q13283 1-139, F33W | F124W). Kind of test: fluorescence polarisation.
Sequence of G3BP1 NTF2 (1-139) F33/124W (Q13283 1-139 F33W/F124W): as the sequence (Q13283 1-139) above, with F33W, F124W counted along it
Test [6] deals with G3BP1 NTF2 (1-139) F15/124W (human, UniProt Q13283 1-139, F15W | F124W). Kind of test: fluorescence polarisation.
Sequence of G3BP1 NTF2 (1-139) F15/124W (Q13283 1-139 F15W/F124W): as the sequence (Q13283 1-139) above, with F15W, F124W counted along it
Test [7] concerns the target G3BP1 NTF2 (1-139) TripleW (F15W/F33W/F124W) (human, UniProt Q13283 1-139, F15W | F33W | F124W). Kind of test: fluorescence polarisation.
Another test addresses G3BP1 NTF2 (1-139) S38A (human, UniProt Q13283 1-139, S38A). Kind of test: fluorescence polarisation.

T1 sequence (Q13283 1-139): as the sequence (Q13283 1-139) above
Sequence of G3BP1 NTF2 (1-139) S38T (Q13283 1-139 S38T): as the sequence (Q13283 1-139) above, with S38T counted along it
Sequence of G3BP1 NTF2 (1-139) TripleW (F15W/F33W/F124W) (Q13283 1-139 F15W/F33W/F124W): as the sequence (Q13283 1-139) above, with F15W, F33W, F124W counted along it
Sequence of G3BP1 NTF2 (1-139) S38A (Q13283 1-139 S38A): as the sequence (Q13283 1-139) above, with S38A counted along it

B1: Caprin1 array peptide N371R (peptide)
peptide: QGPYRFIQDSMLDFENQTLD
With B1, the binding result in the test with His-tagged G3BP1 NTF2 [1] is listed as “binds”.

B2: Caprin1 array peptide L378I (peptide)
peptide: QGPYNFIQDSMIDFENQTLD
Take B2: the binding result with His-tagged G3BP1 NTF2 [1] is recorded as “binds”.

B3: Caprin1 array peptide D375E (peptide)
peptide: QGPYNFIQESMLDFENQTLD
As to B3, in the test with His-tagged G3BP1 NTF2 [1], the binding result is “binds”.

B4: Caprin1 array peptide N371I (peptide)
peptide: QGPYIFIQDSMLDFENQTLD
As to B4, in the test with His-tagged G3BP1 NTF2 [1], the binding result is on record as “binds”.

B5: USP10 array peptide F13L (peptide)
peptide: HSPQYIFGDLSPDEFNQFFV
As for B5, in the test with His-tagged G3BP1 NTF2 [2], the binding result is “binds”.

B6: USP10 array peptide F13I (peptide)
peptide: HSPQYIFGDISPDEFNQFFV
Regarding B6, in the test with His-tagged G3BP1 NTF2 [2], the binding result is recorded as “binds”.

B7: Caprin1 array peptide N371K (peptide)
peptide: QGPYKFIQDSMLDFENQTLD
For B7, the binding result with His-tagged G3BP1 NTF2 [1] is “binds”.

B8: Caprin1 array peptide N371E (peptide)
peptide: QGPYEFIQDSMLDFENQTLD
Consider B8, for which the binding result with His-tagged G3BP1 NTF2 [1] is reported as “binds”.

B9: USP10 array peptide F10I (peptide)
peptide: HSPQYIIGDFSPDEFNQFFV
Turning to B9, the binding result with His-tagged G3BP1 NTF2 [2] is reported as “binds”.

B10: Caprin1 array peptide N371T (peptide)
peptide: QGPYTFIQDSMLDFENQTLD
Regarding B10, in the test with His-tagged G3BP1 NTF2 [1], the binding result is “binds”.

B11: Caprin1 array peptide N371Y (peptide)
peptide: QGPYYFIQDSMLDFENQTLD
Regarding B11, the binding result with His-tagged G3BP1 NTF2 [1] is given as “binds”.

B12: native Caprin1 array peptide QGPYNFIQDSMLDFENQTLD (peptide)
peptide: QGPYNFIQDSMLDFENQTLD
As to B12, the binding result in the test with His-tagged G3BP1 NTF2 [1] is listed as “binds”.

B13: Caprin1 array peptide M377Y (peptide)
peptide: QGPYNFIQDSYLDFENQTLD
In the case of B13, the binding result in the test with His-tagged G3BP1 NTF2 [1] is recorded as “binds”.

B14: USP10 array peptide F13Y (peptide)
peptide: HSPQYIFGDYSPDEFNQFFV
For the molecule B14, the binding result with His-tagged G3BP1 NTF2 [2] is on record as “binds”.

B15: Caprin1-derived dodecamer reporter peptide F*-YNFIQDSMLDFE (peptide)
peptide: {fluorescein-Ahx}-YNFIQDSMLDFE
As to B15, the Kd amounted to 1.7 µM in test [3] and 9.3 µM with G3BP1 NTF2 (1-139) F15W. Moreover, the binding result (in the test with G3BP1 NTF2 (1-139) S38G; with G3BP1 NTF2 (1-139) S38T; in [4]; in test [5]; in [6]; in [7]) was “binds” in each case. Further, the binding result with G3BP1 NTF2 (1-139) S38A is listed as “binds”.

B16: Caprin1 array peptide N371C (peptide)
peptide: QGPYCFIQDSMLDFENQTLD
Turning to B16, the binding result with His-tagged G3BP1 NTF2 [1] is “binds”.

B17: USP10 array peptide F10V (peptide)
peptide: HSPQYIVGDFSPDEFNQFFV
Turning to B17, the binding result with His-tagged G3BP1 NTF2 [2] was “binds”.

B18: Caprin1 array peptide I373F (peptide)
peptide: QGPYNFFQDSMLDFENQTLD
On to B18, for which, in the test with His-tagged G3BP1 NTF2 [1], the binding result is “binds”.

B19: USP10 array peptide G11A (peptide)
peptide: HSPQYIFADFSPDEFNQFFV
Take B19: in the test with His-tagged G3BP1 NTF2 [2], the binding result is reported as “binds”.

B20: Caprin1 array peptide N371H (peptide)
peptide: QGPYHFIQDSMLDFENQTLD
Take B20: the binding result with His-tagged G3BP1 NTF2 [1] was “binds”.

B21: Caprin1 array peptide M377F (peptide)
peptide: QGPYNFIQDSFLDFENQTLD
Take B21: the binding result in the test with His-tagged G3BP1 NTF2 [1] is “binds”.

B22: Caprin1 array peptide N371S (peptide)
peptide: QGPYSFIQDSMLDFENQTLD
B22: the binding result with His-tagged G3BP1 NTF2 [1] was “binds”.

B23: native USP10 array peptide HSPQYIFGDFSPDEFNQFFV (peptide)
peptide: HSPQYIFGDFSPDEFNQFFV
On to B23, for which, in the test with His-tagged G3BP1 NTF2 [2], the binding result is recorded as “binds”.

B24: Caprin1 array peptide N371F (peptide)
peptide: QGPYFFIQDSMLDFENQTLD
With B24, the binding result in the test with His-tagged G3BP1 NTF2 [1] was “binds”.

B25: Caprin1 array peptide N371Q (peptide)
peptide: QGPYQFIQDSMLDFENQTLD
B25: the binding result with His-tagged G3BP1 NTF2 [1] is given as “binds”.

B26: USP10 array peptide F10Y (peptide)
peptide: HSPQYIYGDFSPDEFNQFFV
For B26, the binding result with His-tagged G3BP1 NTF2 [2] is “binds”.

B27: USP10 array peptide F10L (peptide)
peptide: HSPQYILGDFSPDEFNQFFV
With B27, the binding result with His-tagged G3BP1 NTF2 [2] was “binds”.

B28: Caprin1 array peptide I373L (peptide)
peptide: QGPYNFLQDSMLDFENQTLD
As to B28, the binding result with His-tagged G3BP1 NTF2 [1] was “binds”.

B29: Caprin1 array peptide N371M (peptide)
peptide: QGPYMFIQDSMLDFENQTLD
As for B29, the binding result in the test with His-tagged G3BP1 NTF2 [1] is listed as “binds”.

B30: Caprin1 array peptide S376C (peptide)
peptide: QGPYNFIQDCMLDFENQTLD
B30: the binding result with His-tagged G3BP1 NTF2 [1] is given as “binds”.

B31: USP10 array peptide F13V (peptide)
peptide: HSPQYIFGDVSPDEFNQFFV
Take B31: in the test with His-tagged G3BP1 NTF2 [2], the binding result is “binds”.

B32: Caprin1 array peptide Y370F (peptide)
peptide: QGPFNFIQDSMLDFENQTLD
On to B32, for which the binding result in the test with His-tagged G3BP1 NTF2 [1] is recorded as “binds”.

B33: Caprin1 array peptide N371V (peptide)
peptide: QGPYVFIQDSMLDFENQTLD
Regarding B33, in the test with His-tagged G3BP1 NTF2 [1], the binding result is listed as “binds”.

B34: Caprin1 array peptide N371W (peptide)
peptide: QGPYWFIQDSMLDFENQTLD
B34: in the test with His-tagged G3BP1 NTF2 [1], the binding result is given as “binds”.

B35: Caprin1 array peptide N371L (peptide)
peptide: QGPYLFIQDSMLDFENQTLD
As for B35, the binding result with His-tagged G3BP1 NTF2 [1] is recorded as “binds”.

B36: Caprin1 array peptide N371D (peptide)
peptide: QGPYDFIQDSMLDFENQTLD
In the case of B36, in the test with His-tagged G3BP1 NTF2 [1], the binding result is given as “binds”.

B37: USP10 array peptide F13W (peptide)
peptide: HSPQYIFGDWSPDEFNQFFV
On to B37, for which the binding result with His-tagged G3BP1 NTF2 [2] was “binds”.
